Measured values reported in patent CN115894698A (SHAANXI MYBIOTECH CO LTD, dated 2023).

What was measured:
[1] = target: T1, CHI3L1-6his(pcDNA3.1，在293T细胞中过表达的完整人CHI3L1) (human, UniProt P36222 22-383); experiment: CBA, immunofluorescence on acetone-fixed 293T cells overexpressing CHI3L1-6his
T1 construct: whole, on cells; CBA / immunofluorescence target: transfected, acetone-fixed 293T cells; also called 完整CHI3L1序列; 过表达CHI3L1蛋白的细胞; not shown: 6his tag

[2] = target: T2, Q CHI3L1-329-346-6his(缺失329-346片段的CHI3L1构建体) (human, UniProt P36222 22-383); experiment: immunofluorescence on transfected, acetone-fixed 293T cells
T2 construct: Deletion construct, overexpressed in 293T cells from pcDNA3.1, acetone-fixed; not shown: 6his tag

[3] = target: T1, CHI3L1-6his(pcDNA3.1，在293T细胞中过表达的完整人CHI3 …; experiment: as above

| Binder | binding result [1] | binding result [2] | binding result [3] |
| --- | --- | --- | --- |
| 人CHI3L1单克隆抗体1D7(杂交瘤细胞1D7-C5-D5培养上清) (antibody, V domains shown, Tested as culture supernatant; also called 1D7杂交瘤细胞上清; 阳性杂交瘤细胞上清) VH: EVQLLETGGGLVQPGGSRGLSCEGSGFTFSGFWMSWVRQTPGKTLEWIGDINSDGSTINYAPSIKDRFTIFRDNDKSTLYLQMSNVRSEDTATYFCMRYKGAHWGQGTLVTVSA VL: not shown | binds |  |  |
| 重组单克隆抗体1D7(1D7m2a + 1D7mk，293T细胞上清) (antibody, V domains shown, VH cloned into pFUSE-CHIg-m2a (mouse IgG2a constant region of the vector), VL into pFUSE2ss-CLIg-mk (mouse kappa); Tested as 293T culture supernatant; also called 重组1D7单克隆抗体; 重组单克隆细胞上清) VH: EVQLLETGGGLVQPGGSRGLSCEGSGFTFSGFWMSWVRQTPGKTLEWIGDINSDGSTINYAPSIKDRFTIFRDNDKSTLYLQMSNVRSEDTATYFCMRYKGAHWGQGTLVTVSA VL: not shown |  | no binding | binds |
